Test results from patent US20260242478A1 (published 2026).
Where no end group is shown, it is not given here.

Columns and labels:
PSMA Fab [1] = molecular target: T1, PSMA Fab (biotinylated (site not stated)); test: clonal phage ELISA on biotinylated PSMA Fab captured on neutravidin plates, anti-M13 HRP detection;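 also: crude clonal phage supernatants tested, before phage were added, wells were pretreated with PSMA antigen in blocking buffer or with blocking buffer only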
T1 construct: also called Anti-PSMA Fab; 006 PSMA Fab

PSMA Fab [2] = molecular target: T1, PSMA Fab; test: clonal phage ELISA on captured PSMA Fab, wells pre-incubated with PSMA antigen as competitor; column meaning inferred
Description: (§1) Clonal phage were harvested as crude supernatants and screened via standard ELISAs. […] Prior to the addition of clonal phage. wells were incubated with blocking buffer and PSMA antigen or blocking buffer alone. Without washing or aspirating, clonal phage supernatants were then added to the wells and incubated for a short time. Wells were then washed followed by detection of bound phage using a horse radish conjugated anti-M13 antibody.

PSMA Fab [3] = molecular target: T2, PSMA Fab (biotinylated (site not stated)); test: clonal phage ELISA on captured PSMA Fab pre-incubated with PSMA antigen (competitor: PSMA), anti-M13-HRP detection
T2 construct: also called Anti-PSMA Fab; 006 PSMA Fab

PSMA Fab [4] = molecular target: T2, PSMA Fab; test: clonal phage ELISA on biotinylated PSMA Fab captured on neutravidin plates, blocking buffer alone, anti-M13-HRP detection
Description: as §1

PSMA Fab [5] = molecular target: T3, PSMA Fab (biotinylated (site not stated)); test: clonal phage ELISA; biotinylated PSMA Fab on neutravidin plate; bound phage detected with anti-M13-HRP
T3 construct: also called Anti-PSMA Fab; 006 PSMA Fab

PSMA Fab [6] = molecular target: T3, PSMA Fab; test: clonal phage ELISA; PSMA Fab wells pre-incubated with PSMA antigen as competitor; anti-M13-HRP detection
Description: as §1

B1: Phage-2609 (peptide)
peptide: MVKWCTPAWMCTLE
modifications: cysteine pairing not given here; also: displayed on phage as pIII fusion, linker and pIII sequence not given here
notes: Clonal phage of the peptide-180 library; not shown: fused to pIII of the bacteriophage
With B1 the “Phage binding ELISA signal, Anti-PSMA Fab” value (PSMA Fab [1]) was 1.02 and the “Phage binding ELISA signal, Anti-PSMA Fab in presence of PSMA antigen” value (shortened to “Phage binding ELISA signal … of PSMA antigen”) (PSMA Fab [2]) was 0.0801.

B2: Phage-2613 (peptide)
peptide: MYNLCTPEWMCAGF
modifications: cysteine pairing not given here; also: displayed on phage pIII, linker not given here
notes: as for B1
For B2, the “Phage binding ELISA signal, Anti-PSMA Fab” value (PSMA Fab [1]) was 1.02 and the “Phage binding ELISA signal … of PSMA antigen” value (PSMA Fab [2]) was 0.0554.

B3: Phage-2610 (peptide)
peptide: SSMLCIPPWMCEQS
modifications: cysteine pairing not given here; also: displayed on phage as pIII fusion, linker and pIII sequence not given here
notes: as for B1
With B3 the “Phage binding ELISA signal, Anti-PSMA Fab” value (PSMA Fab [1]) was 1.02 and the “Phage binding ELISA signal … of PSMA antigen” value (PSMA Fab [2]) was 0.0682.

B4: Phage-2611 (peptide)
peptide: VEKWCIPEWMCETS
modifications: cysteine pairing not given here; also: displayed on phage pIII, linker not given here
notes: as for B1
With B4 the “Phage binding ELISA signal, Anti-PSMA Fab” value (PSMA Fab [1]) was 1.02 and the “Phage binding ELISA signal … of PSMA antigen” value (PSMA Fab [2]) was 0.0624.

B5: Phage-2617 (peptide)
peptide: YTPWCKPAWMCSVS
modifications: cysteine pairing not given here; also: displayed on phage pIII, linker not given here
notes: as for B1
In the case of B5, the “Phage binding ELISA signal, Anti-PSMA Fab” value (PSMA Fab [1]) is reported as 1.01 and the “Phage binding ELISA signal … of PSMA antigen” value (PSMA Fab [2]) is reported as 0.0806.

B6: Phage-2573 (peptide)
peptide: VDTWCTPPWMCWGL
modifications: cysteine pairing not given here; also: fused to phage pIII, linker and fusion site not given here
notes: also called peptide-180 library clone; not shown: fused to the pIII filament protein of the bacteriophage
For B6, the “phage binding ELISA signal in presence of PSMA” value (PSMA Fab [3]) was 0.0695 and the “phage binding ELISA signal” value (PSMA Fab [4]) was 1.09.

B7: Phage-2607 (peptide)
peptide: QMKLCIPQWMCVDH
modifications: cysteine pairing not given here; also: displayed on phage as pIII fusion, linker and pIII sequence not given here
notes: as for B1
For B7, the “Phage binding ELISA signal, Anti-PSMA Fab” value (PSMA Fab [1]) was 1.03 and the “Phage binding ELISA signal … of PSMA antigen” value (PSMA Fab [2]) was 0.0553.

B8: Phage-2606 (peptide)
peptide: VDKWCIPAWMCDRS
modifications: cysteine pairing not given here; also: displayed on phage as pIII fusion, linker and pIII sequence not given here
notes: as for B1
With B8 the “Phage binding ELISA signal, Anti-PSMA Fab” value (PSMA Fab [1]) was 1.03 and the “Phage binding ELISA signal … of PSMA antigen” value (PSMA Fab [2]) was 0.0604.

B9: Phage-2580 (peptide)
peptide: GVKWCTPAWMCEWT
notes: Clonal phage displaying the peptide, tested as crude supernatant; also called peptide-180 library clone; not shown: fused to the pIII filament protein of the bacteriophage
With B9 the “phage binding ELISA signal in presence of PSMA” value (PSMA Fab [3]) was 0.0707 and the “phage binding ELISA signal” value (PSMA Fab [4]) was 1.08.

B10: Phage-2586 (peptide)
peptide: ETQMCVPQWMCWGI
notes: as for B9
B10 was tested, and the “phage binding ELISA signal in presence of PSMA” value (PSMA Fab [3]) was 0.0571 and the “phage binding ELISA signal” value (PSMA Fab [4]) was 1.07.

B11: Phage-2581 (peptide)
peptide: SEKWCIPEWMCMYA
notes: as for B9
For B11, the “phage binding ELISA signal in presence of PSMA” value (PSMA Fab [3]) was 0.0532 and the “phage binding ELISA signal” value (PSMA Fab [4]) was 1.08.

B12: Phage-2582 (peptide)
peptide: EGKWCIPEWMCISV
notes: as for B9
For B12, the “phage binding ELISA signal in presence of PSMA” value (PSMA Fab [3]) was 0.0637 and the “phage binding ELISA signal” value (PSMA Fab [4]) was 1.08.

B13: Phage-2614 (peptide)
peptide: HVNWCTPKWMCSGF
modifications: cysteine pairing not given here; also: displayed on phage pIII, linker not given here
notes: as for B1
In the case of B13, the “Phage binding ELISA signal, Anti-PSMA Fab” value (PSMA Fab [1]) is reported as 1.02 and the “Phage binding ELISA signal … of PSMA antigen” value (PSMA Fab [2]) is reported as 0.0894.

B14: Phage-2583 (peptide)
peptide: EVMWCRPAWMCDGI
notes: as for B9
In the case of B14, the “phage binding ELISA signal in presence of PSMA” value (PSMA Fab [3]) is reported as 0.0623 and the “phage binding ELISA signal” value (PSMA Fab [4]) is reported as 1.07.

B15: Phage-2612 (peptide)
peptide: FANWCTPSWMCVGM
modifications: cysteine pairing not given here; also: displayed on phage pIII, linker not given here
notes: as for B1
In the case of B15, the “Phage binding ELISA signal, Anti-PSMA Fab” value (PSMA Fab [1]) is reported as 1.02 and the “Phage binding ELISA signal … of PSMA antigen” value (PSMA Fab [2]) is reported as 0.0676.

B16: Phage-2577 (peptide)
peptide: LTNWCTPSWMCYGL
notes: as for B9
In the case of B16, the “phage binding ELISA signal in presence of PSMA” value (PSMA Fab [3]) is reported as 0.0817 and the “phage binding ELISA signal” value (PSMA Fab [4]) is reported as 1.09.

B17: Phage-2618 (peptide)
peptide: AFKWCIPNWMCASQ
modifications: cysteine pairing not given here; also: fused to phage pIII (clonal phage display)
notes: as for B1
For B17, the “Phage binding ELISA signal, Anti-PSMA Fab” value (PSMA Fab [1]) was 1.01 and the “Phage binding ELISA signal … of PSMA antigen” value (PSMA Fab [2]) was 0.0999.

With MNKWCTPAWMCEVV (cysteine pairing not given here; also: displayed on phage as pIII fusion) [Phage-2619] the “Phage binding ELISA signal, Anti-PSMA Fab” value (PSMA Fab [5]) was 0.998 and the “Phage binding ELISA signal, Anti-PSMA Fab with PSMA antigen” value (PSMA Fab [6]) was 0.095.

B18: Phage-2605 (peptide)
peptide: VMKWCTPSWMCEHI
modifications: cysteine pairing not given here; also: displayed on phage as pIII fusion, linker and pIII sequence not given here
notes: as for B1
For B18, the “Phage binding ELISA signal, Anti-PSMA Fab” value (PSMA Fab [1]) was 1.03 and the “Phage binding ELISA signal … of PSMA antigen” value (PSMA Fab [2]) was 0.0582.

B19: Phage-2575 (peptide)
peptide: EFKWCTPEWMCAMA
modifications: cysteine pairing not given here; also: fused to phage pIII, linker and fusion site not given here
notes: as for B9
B19 was tested, and the “phage binding ELISA signal in presence of PSMA” value (PSMA Fab [3]) was 0.0845 and the “phage binding ELISA signal” value (PSMA Fab [4]) was 1.09.

B20: Phage-2587 (peptide)
peptide: VGKWCVPMWMCATD
modifications: cysteine pairing not given here; also: fused to phage pIII, linker and fusion site not given here
notes: as for B9
B20 was tested, and the “phage binding ELISA signal in presence of PSMA” value (PSMA Fab [3]) was 0.0735 and the “phage binding ELISA signal” value (PSMA Fab [4]) was 1.06.

B21: Phage-2608 (peptide)
peptide: LHKLCIPEWMCEYY
modifications: cysteine pairing not given here; also: displayed on phage as pIII fusion, linker and pIII sequence not given here
notes: as for B1
With B21 the “Phage binding ELISA signal, Anti-PSMA Fab” value (PSMA Fab [1]) was 1.03 and the “Phage binding ELISA signal … of PSMA antigen” value (PSMA Fab [2]) was 0.0595.

B22: Phage-2576 (peptide)
peptide: QEKMCIPAWMCSEY
notes: as for B9
With B22 the “phage binding ELISA signal in presence of PSMA” value (PSMA Fab [3]) was 0.0615 and the “phage binding ELISA signal” value (PSMA Fab [4]) was 1.09.

B23: Phage-2585 (peptide)
peptide: DLKRCIPDWMCAVA
modifications: cysteine pairing not given here; also: fused to phage pIII, linker and fusion site not given here
notes: as for B9
B23 was tested, and the “phage binding ELISA signal in presence of PSMA” value (PSMA Fab [3]) was 0.0617 and the “phage binding ELISA signal” value (PSMA Fab [4]) was 1.07.

For IANWCTPQWMCDGF [Phage-2620], the “Phage binding ELISA signal, Anti-PSMA Fab” value (PSMA Fab [5]) was 0.997 and the “Phage binding ELISA signal, Anti-PSMA Fab with PSMA antigen” value (PSMA Fab [6]) was 0.0631.

B24: Phage-2604 (peptide)
peptide: VWQLCIPPWMCQFE
modifications: cysteine pairing not given here; also: displayed on phage as pIII fusion, linker and pIII sequence not given here
notes: as for B1
For B24, the “Phage binding ELISA signal, Anti-PSMA Fab” value (PSMA Fab [1]) was 1.03 and the “Phage binding ELISA signal … of PSMA antigen” value (PSMA Fab [2]) was 0.113.

With VPKWCTPDWMCYGM [Phage-2621] the “Phage binding ELISA signal, Anti-PSMA Fab” value (PSMA Fab [5]) was 0.996 and the “Phage binding ELISA signal, Anti-PSMA Fab with PSMA antigen” value (PSMA Fab [6]) was 0.0681.

B25: Phage-2584 (peptide)
peptide: VVKWCKPAWMCEQA
notes: as for B9
For B25, the “phage binding ELISA signal in presence of PSMA” value (PSMA Fab [3]) was 0.0788 and the “phage binding ELISA signal” value (PSMA Fab [4]) was 1.07.

B26: Phage-2616 (peptide)
peptide: QDNWCIPRWMCEAM
modifications: cysteine pairing not given here; also: displayed on phage pIII, linker not given here
notes: as for B1
With B26 the “Phage binding ELISA signal, Anti-PSMA Fab” value (PSMA Fab [1]) was 1.01 and the “Phage binding ELISA signal … of PSMA antigen” value (PSMA Fab [2]) was 0.0626.

B27: Phage-2579 (peptide)
peptide: GPKWCTPPWMCWEF
notes: as for B9
With B27 the “phage binding ELISA signal in presence of PSMA” value (PSMA Fab [3]) was 0.331 and the “phage binding ELISA signal” value (PSMA Fab [4]) was 1.08.

B28: Phage-2574 (peptide)
peptide: TFKWCTPAWMCAGF
modifications: cysteine pairing not given here; also: fused to phage pIII, linker and fusion site not given here
notes: as for B9
In the case of B28, the “phage binding ELISA signal in presence of PSMA” value (PSMA Fab [3]) is reported as 0.0801 and the “phage binding ELISA signal” value (PSMA Fab [4]) is reported as 1.09.

B29: Phage-2615 (peptide)
peptide: HEKWCIPPWMCEAN
modifications: cysteine pairing not given here; also: fused to phage pIII (clonal phage display)
notes: as for B1
With B29 the “Phage binding ELISA signal, Anti-PSMA Fab” value (PSMA Fab [1]) was 1.01 and the “Phage binding ELISA signal … of PSMA antigen” value (PSMA Fab [2]) was 0.0603.

B30: Phage-2578 (peptide)
peptide: LQEWCIPPWMCIKS
notes: as for B9
For B30, the “phage binding ELISA signal in presence of PSMA” value (PSMA Fab [3]) was 0.0797 and the “phage binding ELISA signal” value (PSMA Fab [4]) was 1.09.
